For two molecules, binding result and Kd results are on record in article PMC12525626, “Phosphorylation as a candidate regulatory mechanism for effector recruitment to tankyrase” (Royal Society Open Science, 2025).

Square brackets hold non-standard residues; d marks the D form. 5(6)‑carboxyfluorescein = 5(6)-carboxyfluorescein; pS = N[C@@H](COP(=O)(O)O)C(=O)O; βAla = NCCC(=O)O

Assay [1] deals with T1, Human TNKS2 ARC4 (residues 488-649), wild type (human, UniProt Q9H2K2 488-649).
T1 construct: Tankyrase-2 (TNKS2), human, ankyrin repeat cluster 4, residues 488-649 of NM_025235.2, from the construct pETM30-2-TNKS2 ARC4; Monomeric by SEC-MALS; also called WT ARC4; tankyrase ankyrin repeat cluster 4; source: E. coli BL21-CodonPlus(DE3)-RIL, purified (HisTrap, TEV cleavage, second HisTrap, Superdex 75)
T1 sequence (looked up): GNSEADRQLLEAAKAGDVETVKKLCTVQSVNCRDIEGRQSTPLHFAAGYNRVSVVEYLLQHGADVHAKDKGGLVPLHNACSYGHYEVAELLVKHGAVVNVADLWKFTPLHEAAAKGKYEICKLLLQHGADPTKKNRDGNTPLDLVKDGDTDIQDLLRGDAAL
Briefly: crystal structure; TNKS2 ARC4 at 20 mg/ml with 1.5-fold molar excess of phospho-MDC1 peptide in 25 mM HEPES-NaOH pH 7.5, 100 mM NaCl, 2 mM TCEP; sitting drop, 4°C, 0.1 M Na cacodylate pH 6.5, 0.2 M Na acetate, 30% PEG 8000; molecular replacement. Particulars: both partners purified.

The target in assay [2] is T1, Human TNKS2 ARC4 (residues 488-649), …. Briefly: fluorescence polarisation; carboxyfluorescein-labelled MDC1 TBM1 peptides with TNKS2 ARC4 protein (no-protein wells as baseline); POLARstar Omega plate reader; n = 3 separate experiments in technical duplicate; one-site total binding model, standard errors of the fit. To be noted: both partners purified. (Polarisation of emitted light reports the rotation of a fluorescent probe.)

B1: MDC1 phospho-TBM1 peptide for co-crystallization (acetyl-943ERDTQRGEPEGG-pS-QDQ958-NH2) (peptide)
peptide: Ac-ERDTQRGEPEGG[pS]QDQ-NH2
SMILES: CC(=O)N[C@@H](CCC(=O)O)C(=O)N[C@@H](CCCNC(=N)N)C(=O)N[C@@H](CC(=O)O)C(=O)N[C@H](C(=O)N[C@@H](CCC(N)=O)C(=O)N[C@@H](CCCNC(=N)N)C(=O)NCC(=O)N[C@@H](CCC(=O)O)C(=O)N1CCC[C@H]1C(=O)N[C@@H](CCC(=O)O)C(=O)NCC(=O)NCC(=O)N[C@@H](COP(=O)(O)O)C(=O)N[C@@H](CCC(N)=O)C(=O)N[C@@H](CC(=O)O)C(=O)N[C@@H](CCC(N)=O)C(N)=O)[C@@H](C)O
notes: Mediator of DNA damage checkpoint protein 1 (MDC1), human, residues 943-958 around TBM1; also called phospho-MDC1 peptide; source: synthetic peptide (JPT, Berlin; HPLC-purified)
B1: the binding result in assay [1] is on record as “binds”.

B2: MDC1 TBM1 peptide, non-phosphorylated (5(6)-carboxyfluorescein-βAla-QRGEPEGGSQ-NH2) (peptide)
peptide: {5(6)‑carboxyfluorescein-βAla}-QRGEPEGGSQ-NH2
notes: also called Non-phosphorylated TBM1; source: synthetic peptide (JPT, Berlin; crude stock, greater than 70% pure by HPLC)
For the molecule B2, the Kd in assay [2] stood at 4.5 µM.

The term Kd denotes the constant that tells how readily two partners part at equilibrium. A higher Kd goes with lower affinity.
